The target in this assay is human UbcH5c, full-length (aa 1-147) (human) (UniProt P61077). The experiment in a line: ITC. In general terms: In ITC the heat of successive injections is recorded.

Experimental findings from article PMC3005147 are described below.

Turning to “human E4B U-box domain (aa 1208-1302) (from UniProt O95155 1208-1302) (domain or fragment)”, the Kd (in general, the concentration at which binding is half-saturated) turned out to be 67.1 µM; the dH was found to be 12.1 kJ/mol; the stoichiometry N (usually a count of units in the complex or per binding partner) was 0.99.
